Here are results for 14 molecules from US20230020729A1 (Memorial Sloan Kettering, published 2023).

For the assay, the target named is T1, human Fc Receptor-Like 5 (FcRL5), full length, expressed on cells (human, UniProt Q96RD9 16-977).
T1 construct: also called CD307e; IRTA2
T1 sequence: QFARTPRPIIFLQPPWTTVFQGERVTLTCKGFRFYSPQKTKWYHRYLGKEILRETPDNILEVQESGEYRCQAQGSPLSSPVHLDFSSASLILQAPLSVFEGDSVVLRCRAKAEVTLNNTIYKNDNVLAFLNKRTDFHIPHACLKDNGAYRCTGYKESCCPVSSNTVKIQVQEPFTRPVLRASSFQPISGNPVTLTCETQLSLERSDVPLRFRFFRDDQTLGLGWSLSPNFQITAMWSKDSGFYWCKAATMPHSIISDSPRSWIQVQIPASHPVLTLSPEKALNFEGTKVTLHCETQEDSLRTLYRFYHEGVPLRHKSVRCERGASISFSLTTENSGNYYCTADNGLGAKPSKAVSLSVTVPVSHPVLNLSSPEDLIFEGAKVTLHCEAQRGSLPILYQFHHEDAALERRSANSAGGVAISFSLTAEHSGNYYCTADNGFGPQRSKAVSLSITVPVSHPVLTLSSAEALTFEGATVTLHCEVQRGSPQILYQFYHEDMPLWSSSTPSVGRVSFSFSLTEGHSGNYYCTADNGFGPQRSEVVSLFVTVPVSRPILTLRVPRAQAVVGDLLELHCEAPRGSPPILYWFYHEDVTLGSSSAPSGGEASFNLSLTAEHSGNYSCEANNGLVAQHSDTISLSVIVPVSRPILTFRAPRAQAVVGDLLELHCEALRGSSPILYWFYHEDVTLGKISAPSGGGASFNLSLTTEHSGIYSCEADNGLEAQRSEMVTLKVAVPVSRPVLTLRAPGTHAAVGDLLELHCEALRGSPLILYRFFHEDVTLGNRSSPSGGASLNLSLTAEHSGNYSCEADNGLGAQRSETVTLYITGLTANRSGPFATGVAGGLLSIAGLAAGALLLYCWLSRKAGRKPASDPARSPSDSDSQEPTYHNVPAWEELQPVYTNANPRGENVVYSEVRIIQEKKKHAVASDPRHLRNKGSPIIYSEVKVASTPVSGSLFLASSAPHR
Nature of the assay: scFv phage: ELISA on His-tag FcRL5, flow cytometry on FcRL5-overexpressing 3T3 and Raji cells. A general note: An ELISA detects its analyte on a solid surface through an enzyme-linked reagent.

B1: ET200-041 scFv (scFv)
scFv: NFMLTQPHSVSGSPGKTVTISCTGSSGSIADNFVQWYQQRPGGVPTTVIFNDDERPSGVPDRFSGSIDTSSNSASLTISGLKTEDEADYYCQSYDNNNRGVFGGGTKLTVLGSRGGGGSGGGGSGGGGSLEMAQVQLVQSGAEVKKPGSSVKVSCKASGGTFSSYAISWVRQAPGQGLEWMGWMNPNSGNTGYAQKFQGRVTMTRNTSISTAYMELSNLRSEDTAVYYCARYYSYGYDWGQGTLVTVSS
notes: VL-linker-VH; screened as scFv phage clone
For B1, the binding result was “binds”.

B2: ET200-034 scFv (scFv)
scFv: QSVLTQPPSVSGAPGQRVTISCTGSTSNIGAGYDVHWYQQLPGTAPKLLINNNRNRPSGVPDRFSGSKSGTSATLGITGLQTGDEADYYCGTWDGSLTGAVFGGGTKLTVLGSRGGGGSGGGGSGGGGSLEMAEVQLVQSGAEVKKPGSSVKVSCKASGGTFSSYAISWVRQAPGQGLEWMGGIIPIFGTANYAQKFQGRVTITADESTSTAYMELSSLRSEDTAVYYCARGSALDHYDRWGQGTLVTVSS
notes: as for B1
As to B2, the binding result is “binds”.

B3: ET200-044 scFv (scFv)
scFv: QSVLTQPPSVSVSPGQTATIACSGHKLGDKYASWYQQKSGQSPVLIIYQDNKRPSGIPERFSGSNSGNTATLTISGTQALDEADYYCQAWDSSTYVAFGGGTKLTVLGSRGGGGSGGGGSGGGGSLEMAQVQLQESGPGLVKPSETLSLTCVVSGGSISSSNWWSWVRQPPGKGLEWIGEIYHSGSPNYNPSLKSRVTISVDKSKNQFSLKLSSVTAADTAVYYCARMTTHTFGYDAWGQGTLVTVSS
notes: as for B1
For the molecule B3, the binding result is reported as “binds”.

B4: ET200-038 scFv (scFv)
scFv: QSVLTQPPSVSGAPGQRVTISCTGSSSNIGAGFDVHWYQLLPGTAPKLLIYANSNRPSGVPDRFSGSKSGTSASLAITGLLAEDEADYYCQSYDSSLSGVVFGGGTKLTVLGSRGGGGSGGGGSGGGGSLEMAQVQLVQSGAEVKKPGSSVKVSCKASGGTFSSYAISWVRQAPGQGLEWMGGIIPIFGTANYAQKFQGRVTITADESTSTAYMELSSLRSEDTAVYYCARGASFDRHDNWGQGTLVTVSS
notes: as for B1
With B4, the binding result is recorded as “binds”.

B5: ET200-031 scFv (scFv)
scFv: SYVLTQPPSVSVAPGKTARITCGGNNIGSKSVHWYQQKPGQAPVLVIYYDSDRPSGIPERFSGSNSGNTATLTISRVEAGDEADYYCQVWDSSSDYVFGTGTKVTVLGSRGGGGSGGGGSGGGGSLEMAEVQLVETGGGLVKPGGSLRLSCAASGFTVSDYYMSWIRQAPGKGLEWISYISGSGNSIYYADSVKGRFTISRDNAKNSLDLQMTSLRAEDTAVYYCARSTKFDYWGQGTLVTVSS
notes: VL-linker-VH; screened as scFv phage clone; also called ET200-31
Consider B5, for which the binding result is “binds”.

B6: ET200-042 scFv (scFv)
scFv: QSVVTQPPSVSGAPGQTVTISCTGGSSNIGTGYFVNWYQQVPGKAPKLLILGNNNRPSGVPDRLSGSTSGTSASLAITGLQAEDEGTYYCQSYDSSLSGYVFGTGTKVTVLGSRGGGGSGGGGSGGGGSLEMAQVQLQQSGPGLVKPSQTLSLTCGISGDSVSTNSVAWHWIRQSPSRGLEWLGRTYYRSKWSNDYGVSVKSRITIIPDTSKNQFSLQLNSVTPEDTAVYYCARSSSWYQIFDYWGQGTLVTVSS
notes: as for B1
On to B6, for which the binding result is on record as “binds”.

B7: ET200-029 scFv (scFv)
scFv: QAVLTQPPSVSVAPGKTARVTCGGNNIGSESVHWYQQKPGQAPVLVIYYDTDRPSGIPERFSGSHSGTTATLTISRVEAGDEADYYCQVWDSSRDHVVFGGGTKLTVLGSRGGGGSGGGGSGGGGSLEMAQVQLVQSGGGVVQPGRSLRLSCAASGFTFSSYAMHWVRQAPGKGLEWVAVISYDGSNKYYADSVKGLFTISRDNSKNTLYLQMNSLRAEDTAVYYCARSYFTSGFYDYWGQGTLVTVSS
notes: as for B1
In the case of B7, the binding result was “binds”.

B8: ET200-003 scFv (scFv)
scFv: QSVLTQPPSVSVSPGQTASISCSGNKLGTKYVYWYQKRPGQSPVLVMYEDNQRPSGIPERFSGSNSGNTATLTIRGTQTVDEADYYCQAWDSDTFVVFGGGTKVTVLGSRGGGGSGGGGSGGGGSLEMAEVQLVETGGGVVQPGRSLRLSCAASGFTFSSYGMHWVRQAPGKGLEWVAVISHDGSNKYYADSVKGRFTISRDNSKDTLYLQMNSLRGEDTAVYYCARSNQWSGYFSFDYWGQGTLVTVSS
notes: as for B1
As to B8, the binding result is reported as “binds”.

B9: ET200-006 scFv (scFv)
scFv: SYVLTQPPSVSVAPGKTARITCGGNNIGSKSVHWYQQKPGQAPVVVIHYDSDRPSGIPERFSGSNSGNTATLTISRVEAGDEADYYCQVWDSSSDHPYVFGTGTKVTVLGSRGGGGSGGGGSGGGGSLEMAEVQLVQSGAEVKKPGASVKVSCKASGYTFTTYGISWVRQAPGQGLEWMGWINTYNGHTNYAQKLQGRATMTADTSTNTAYMELRSLRSDDTAVYYCARVIYGSGDYWGQGTLVTVSS
notes: as for B1
Turning to B9, the binding result is given as “binds”.

B10: ET200-030 scFv (scFv)
scFv: QSVVTQPPSVSGAPGQRVTISCTGSSSNIGAGYDVNWYQQFPGTAPKLLIYGNSNRPSGVPDRFSGSKSGTSASLAITGLQAEDEADYYCQSYDSSLSGSYVFGTGTKVTVLGSRGGGGSGGGGSGGGGSLEMAQMQLVQSGAEVKKPGASVKVSCKASGYTLTELSMHWVRQAPGKGLEWMGGFDPEDGETIYAQKFQGRVTMTEDTSTDTAYMELSSLRSEDTAVYYCARMSSMYYDWGQGTLVTVSS
notes: as for B1
With B10, the binding result was “binds”.

B11: ET200-040 scFv (scFv)
scFv: QSVLTQPPSVSGAPGQRVTISCTGSSSNIGAGYDVHWYQQLPGTAPKLLIYGNSNRPSGVPDRFSGSKSGTSASLAITGLQAEDEADYYCQSYDSSLSGYVFGTGTKVTVLGSRGGGGSGGGGSGGGGSLEMAQVQLVQSGAEVKKPGASVKVSCKVSGYTLTELSMHWVRQAPGKGLEWMGGFDPEDGETIYAQKFQGRVTMTEDTSTDTAYMELSSLRSEDTAVYYCARYSGVYYDWGQGTLVTVSS
notes: as for B1
Take B11: the binding result is reported as “binds”.

B12: ET200-033 scFv (scFv)
scFv: NFMLTQPHSVSESPGKTVTISCTGSSGSIASNYVQWYQQRPGSAPTTVIYEDNQRPSGVPDRFSGSIDSSSNSASLTISGLKTEDEADYYCQSYDSSNHWVFGGGTKLTVLGSRGGGGSGGGGSGGGGSLEMAQVQLQQWGAGLLKPSETLSLTCAVYGGSFSGYYWSWIRQPPGKGLEWIGEITHSGRSNYNPSLKSRVTISVDTSKNQFSLKLSSVTAADTAVYYCARSSIMSDYWGQGTLVTVSS
notes: as for B1
For the molecule B12, the binding result was “binds”.

B13: ET200-032 scFv (scFv)
scFv: LPVLTQPPSASGTPGQRVTISCSGSSSNVGSYTVNWYRQLPGTAPTLLIYNNNQRPSGVPDRFSDSKSGTSASLTISGLQPEDEADYYCAAWDDRLGGYVFGTGTKVTVLGSRGGGGSGGGGSGGGGSLEMAEVQLVQSGAEVKKPGESLKISCKGSGYSFTNYWIGWVRQMPGKGLEWMGIIYPGDSDTRYSPSFQGQVTISADKSISTAYLQWSSLKASDTAMYYCARSTGSSHMSDEWGQGTLVTVSS
notes: as for B1
B13: the binding result is “binds”.

B14: ET200-028 scFv (scFv)
scFv: QSVLTQPPAASGTPGQRVTISCSGGVSNIGSGALNWYQQLPGTAPKLLIYSYNQRPSGVSDRFSGSRSATSASLAISGLQSEDEADYYCATWDDSVNGWVFGGGTKLTVLGSRGGGGSGGGGSGGGGSLEMAQVQLVQSGAEVKKPGDSVKVSCKPSGYNFLNYGINWVRQAPGQGLEWMGWISTYTGNTNYAQKLQGRVTFTTDTSTSTAYMEMRSLRSDDTAVYYCARDLYYYEGVDYWGQGTLVTVSS
notes: as for B1
Take B14: the binding result was “binds”.
